Experimental data published in PMC12416549 (2024).

T1: TNFR1 (Homo sapiens, UniProt P19438)
T1 chain: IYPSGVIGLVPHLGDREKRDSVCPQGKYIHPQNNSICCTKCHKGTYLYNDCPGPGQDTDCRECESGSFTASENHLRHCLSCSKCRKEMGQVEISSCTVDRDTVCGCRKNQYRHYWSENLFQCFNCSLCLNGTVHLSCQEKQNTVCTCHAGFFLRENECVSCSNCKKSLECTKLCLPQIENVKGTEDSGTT


Molecular target: T1, TNFR1
Test: yeast display SC50

| Binder | apparent Kd (screen) [nM] |
| --- | --- |
| K88Y (designed binder) SMEEEVEKAAKEYEKKKKEAIEKHLEKLKAKDKEAAERFLKELEEAAKEYAKDEAKTMSEEEAKRRAKKYKEKVLLSELSEEEQKEIYEAEEKLVRTILKYVEEAAK | 0.49 |
| Y70T (designed binder) SMEEEVEKAAKEYEKKKKEAIEKHLEKLKAKDKEAAERFLKELEEAAKEYAKDEAKTMSEEEAKRRAKKTKEKVLLSELSEEEQKEIKEAEEKLVRTILKYVEEAAK | 7.07 |
| E3R (designed binder) SMREEVEKAAKEYEKKKKEAIEKHLEKLKAKDKEAAERFLKELEEAAKEYAKDEAKTMSEEEAKRRAKKYKEKVLLSELSEEEQKEIKEAEEKLVRTILKYVEEAAK | 1.4 |
| E104M (designed binder) SMEEEVEKAAKEYEKKKKEAIEKHLEKLKAKDKEAAERFLKELEEAAKEYAKDEAKTMSEEEAKRRAKKYKEKVLLSELSEEEQKEIKEAEEKLVRTILKYVEMAAK | 0.869 |
| A90I (designed binder) SMEEEVEKAAKEYEKKKKEAIEKHLEKLKAKDKEAAERFLKELEEAAKEYAKDEAKTMSEEEAKRRAKKYKEKVLLSELSEEEQKEIKEIEEKLVRTILKYVEEAAK | 1.4 |
| R38I (designed binder) SMEEEVEKAAKEYEKKKKEAIEKHLEKLKAKDKEAAEIFLKELEEAAKEYAKDEAKTMSEEEAKRRAKKYKEKVLLSELSEEEQKEIKEAEEKLVRTILKYVEEAAK | 1.4 |
| Y13N (designed binder) SMEEEVEKAAKENEKKKKEAIEKHLEKLKAKDKEAAERFLKELEEAAKEYAKDEAKTMSEEEAKRRAKKYKEKVLLSELSEEEQKEIKEAEEKLVRTILKYVEEAAK | 0.446 |
| R65L (designed binder) SMEEEVEKAAKEYEKKKKEAIEKHLEKLKAKDKEAAERFLKELEEAAKEYAKDEAKTMSEEEAKLRAKKYKEKVLLSELSEEEQKEIKEAEEKLVRTILKYVEEAAK | 1.05 |
| S1S (designed binder) SMEEEVEKAAKEYEKKKKEAIEKHLEKLKAKDKEAAERFLKELEEAAKEYAKDEAKTMSEEEAKRRAKKYKEKVLLSELSEEEQKEIKEAEEKLVRTILKYVEEAAK | 0.539 |
| R96P (designed binder) SMEEEVEKAAKEYEKKKKEAIEKHLEKLKAKDKEAAERFLKELEEAAKEYAKDEAKTMSEEEAKRRAKKYKEKVLLSELSEEEQKEIKEAEEKLVPTILKYVEEAAK | 1.27 |
| E3S (designed binder) SMSEEVEKAAKEYEKKKKEAIEKHLEKLKAKDKEAAERFLKELEEAAKEYAKDEAKTMSEEEAKRRAKKYKEKVLLSELSEEEQKEIKEAEEKLVRTILKYVEEAAK | 2.73 |
| K18R (designed binder) SMEEEVEKAAKEYEKKKREAIEKHLEKLKAKDKEAAERFLKELEEAAKEYAKDEAKTMSEEEAKRRAKKYKEKVLLSELSEEEQKEIKEAEEKLVRTILKYVEEAAK | 0.79 |
| A47E (designed binder) SMEEEVEKAAKEYEKKKKEAIEKHLEKLKAKDKEAAERFLKELEEAEKEYAKDEAKTMSEEEAKRRAKKYKEKVLLSELSEEEQKEIKEAEEKLVRTILKYVEEAAK | 0.0802 |
| L99N (designed binder) SMEEEVEKAAKEYEKKKKEAIEKHLEKLKAKDKEAAERFLKELEEAAKEYAKDEAKTMSEEEAKRRAKKYKEKVLLSELSEEEQKEIKEAEEKLVRTINKYVEEAAK | 6.43 |
| Q84E (designed binder) SMEEEVEKAAKEYEKKKKEAIEKHLEKLKAKDKEAAERFLKELEEAAKEYAKDEAKTMSEEEAKRRAKKYKEKVLLSELSEEEEKEIKEAEEKLVRTILKYVEEAAK | 4.39 |
| E78S (designed binder) SMEEEVEKAAKEYEKKKKEAIEKHLEKLKAKDKEAAERFLKELEEAAKEYAKDEAKTMSEEEAKRRAKKYKEKVLLSSLSEEEQKEIKEAEEKLVRTILKYVEEAAK | 1.54 |
| E34V (designed binder) SMEEEVEKAAKEYEKKKKEAIEKHLEKLKAKDKVAAERFLKELEEAAKEYAKDEAKTMSEEEAKRRAKKYKEKVLLSELSEEEQKEIKEAEEKLVRTILKYVEEAAK | 0.446 |
| K88R (designed binder) SMEEEVEKAAKEYEKKKKEAIEKHLEKLKAKDKEAAERFLKELEEAAKEYAKDEAKTMSEEEAKRRAKKYKEKVLLSELSEEEQKEIREAEEKLVRTILKYVEEAAK | 0.49 |
| A10E (designed binder) SMEEEVEKAEKEYEKKKKEAIEKHLEKLKAKDKEAAERFLKELEEAAKEYAKDEAKTMSEEEAKRRAKKYKEKVLLSELSEEEQKEIKEAEEKLVRTILKYVEEAAK | 1.27 |
| L28F (designed binder) SMEEEVEKAAKEYEKKKKEAIEKHLEKFKAKDKEAAERFLKELEEAAKEYAKDEAKTMSEEEAKRRAKKYKEKVLLSELSEEEQKEIKEAEEKLVRTILKYVEEAAK | 0.446 |
| E37G (designed binder) SMEEEVEKAAKEYEKKKKEAIEKHLEKLKAKDKEAAGRFLKELEEAAKEYAKDEAKTMSEEEAKRRAKKYKEKVLLSELSEEEQKEIKEAEEKLVRTILKYVEEAAK | 0.446 |
| E34M (designed binder) SMEEEVEKAAKEYEKKKKEAIEKHLEKLKAKDKMAAERFLKELEEAAKEYAKDEAKTMSEEEAKRRAKKYKEKVLLSELSEEEQKEIKEAEEKLVRTILKYVEEAAK | 0.446 |
| E19I (designed binder) SMEEEVEKAAKEYEKKKKIAIEKHLEKLKAKDKEAAERFLKELEEAAKEYAKDEAKTMSEEEAKRRAKKYKEKVLLSELSEEEQKEIKEAEEKLVRTILKYVEEAAK | 0.869 |
| K69Q (designed binder) SMEEEVEKAAKEYEKKKKEAIEKHLEKLKAKDKEAAERFLKELEEAAKEYAKDEAKTMSEEEAKRRAKQYKEKVLLSELSEEEQKEIKEAEEKLVRTILKYVEEAAK | 0.446 |
| L76S (designed binder) SMEEEVEKAAKEYEKKKKEAIEKHLEKLKAKDKEAAERFLKELEEAAKEYAKDEAKTMSEEEAKRRAKKYKEKVLSSELSEEEQKEIKEAEEKLVRTILKYVEEAAK | 4.83 |
